Laboratory results from article PMC11205783, “HigA2 (Rv2021c) Is a Transcriptional Regulator with Multiple Regulatory Targets in Mycobacterium tuberculosis”.

T1: HigA2 (Mycobacterium tuberculosis H37Rv) (UniProt O53467)
T1 sequence: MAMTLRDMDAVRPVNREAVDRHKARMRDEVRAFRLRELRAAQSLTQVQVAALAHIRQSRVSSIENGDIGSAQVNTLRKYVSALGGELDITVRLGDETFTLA

T2: HigA2 (Mycobacterium tuberculosis H37Rv, UniProt O53467 1-101)
T2 sequence: T1 sequence

B1: Rv0010c-40bp (dsDNA)
DNA 1: CAGTGGGGATGAATCACATGCGTGTGATTGAGTGACCAAA
DNA 2: TTTGGTCACTCAATCACACGCATGTGATTCATCCCCACTG
B2: Rv1733c-40bp (dsDNA)
DNA 1: GTGTTGCTGTCGATCACCCCCTCGTGATCGATCACGGTCG
DNA 2: CGACCGTGATCGATCACGAGGGGGTGATCGACAGCAACAC
B3: Rv3396c-40bp (dsDNA)
DNA 1: TGTGGGGTGTGCATCACCTCCGGGTGATACTGCACCCCGG
DNA 2: CCGGGGTGCAGTATCACCCGGAGGTGATGCACACCCCACA
B4: Rv0258c-40bp (dsDNA)
DNA 1: CATGGTGTCAGGATCACCCCGCTGTGATCAAAGATCAAGC
DNA 2: GCTTGATCTTTGATCACAGCGGGGTGATCCTGACACCATG
B5: Rv0086-40bp (dsDNA)
DNA 1: CGCCATCGCCGATATCACCGGCGTGATGCGACGGTCGCGG
DNA 2: CCGCGACCGTCGCATCACGCCGGTGATATCGGCGATGGCG
B6: Rv2434c-40bp (dsDNA)
DNA 1: GGTTCCCATGGGTATCACCTTCGTGATCGCCGGCAGCGTG
DNA 2: CACGCTGCCGGCGATCACGAAGGTGATACCCATGGGAACC
B7: Rv2044c-40bp (dsDNA)
DNA 1: TGTCGCTCACTACATCACCGGCGTGATCTATCCCGCCGGT
DNA 2: ACCGGCGGGATAGATCACGCCGGTGATGTAGTGAGCGACA

Target: T1, HigA2 (Mycobacterium tuberculosis H37Rv)
Test: EMSA
Settings: EMSA: 20 mM Tris-HCl, 150 mM NaCl, pH 8.0, 37 °C, 5 min, HigA2 1 uM (titrated in Fig 4); agarose or native PAGE. Pull-down: streptavidin beads, 4 °C, PBS …

Row | Molecule | binding signal [µM] | binding
1 | higB2 40 bp | 5 | –
2 | CGCTGCTCTTACCCGGAGGAATATCACCCTTGTGTGATATCGCGTATCGCGCTACTCTG (double strand) [seq6] | – | binds
3 | GGCACAGGCTACTGTTTCAACGGCCCGGGTGCGCAGAGTCCGTCCTCGCCTGCCGGCATTTCCTCGACGGTAGCCCCGTCGCCCGCTGCTCTTACCCGGAGGAATATCACCCTTGTGTGATATCGCGTATCGCGCTACTCTGCGACTCTGTGGGGTGGACGGCGGATGTGGAGCGCATCTCCGCCTGGCTCAACGGCTTGGACCGAGAGACCTACGAATTGGTGTTCGCAGCTATCG (double strand) [seq4] | – | binds

Target: T2, HigA2
Test: EMSA; essentially complete binding; 1 uM DNA; EMSA: 20 mM Tris-HCl, 150 mM NaCl, pH 8.0, 37 °C, 5 min, HigA2 1 uM (titrated in Fig 4); agarose or native PAGE. Pull-down: streptavidin beads, 4 °C, PBS washes
Settings: protein: recombinant; tags: C-terminal 6xHis; chain copies: 2; blunt

Row | Molecule | binding signal [µM]
4 | B1 | ~8
5 | B2 | ~8
6 | B3 | ~8
7 | B4 | ~5
8 | B5 | ~20
9 | B6 | ~20
10 | B7 | ~5
